Changes are numbered by the printed parent chain. Read-outs that look alike come from different tables or passages of the source.

Experiment [1] concerns the target human CCR8 (C-C chemokine receptor type 8) expressed on cells (human) (UniProt P51685). Kind of experiment: flow cytometry competition on Raji-CCR8 cells; competitor: fluorescently-conjugated BIOLEGEND anti-human CCR8 antibody at a single concentration. A general note: Flow cytometry measures light scatter and fluorescence of single cells or particles in a stream.

In experiment [2] the target is T1, Cynomolgus CCR8-ECD-Fc (cynomolgus monkey).
T1 construct: also called CyCCR8-ECD-Fc; Cynomolgus CCR8-Fc
T1 chain: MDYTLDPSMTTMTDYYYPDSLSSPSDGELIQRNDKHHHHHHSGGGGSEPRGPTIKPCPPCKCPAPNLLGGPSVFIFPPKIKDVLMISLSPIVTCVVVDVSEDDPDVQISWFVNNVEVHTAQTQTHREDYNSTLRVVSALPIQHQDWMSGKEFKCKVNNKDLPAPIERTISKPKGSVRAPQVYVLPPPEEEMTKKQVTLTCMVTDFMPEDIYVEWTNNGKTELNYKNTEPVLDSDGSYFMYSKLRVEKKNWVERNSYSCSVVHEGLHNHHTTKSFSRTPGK
Nature of the experiment: binding to CyCCR8-ECD-Fc protein, OD 450-570 nm.

Experiment [3] has as its target T2, human CCR8 (C-C chemokine receptor type 8) expressed on cells (human, UniProt P51685 1-355).
T2 construct: also called HuCCR8
Nature of the experiment: on-cell affinity, flow cytometry on 293T cells expressing human CCR8.

Experiment [4] addresses T3, cynomolgus monkey CCR8 expressed on cells (cynomolgus monkey, UniProt G7NYJ2 1-355).
T3 construct: whole, on cells; also called cyno CCR8; CyCCR8
Nature of the experiment: on-cell affinity, flow cytometry on 293T cells expressing cyno CCR8.
Target sequence in this assay (G7NYJ2 entry or part of it): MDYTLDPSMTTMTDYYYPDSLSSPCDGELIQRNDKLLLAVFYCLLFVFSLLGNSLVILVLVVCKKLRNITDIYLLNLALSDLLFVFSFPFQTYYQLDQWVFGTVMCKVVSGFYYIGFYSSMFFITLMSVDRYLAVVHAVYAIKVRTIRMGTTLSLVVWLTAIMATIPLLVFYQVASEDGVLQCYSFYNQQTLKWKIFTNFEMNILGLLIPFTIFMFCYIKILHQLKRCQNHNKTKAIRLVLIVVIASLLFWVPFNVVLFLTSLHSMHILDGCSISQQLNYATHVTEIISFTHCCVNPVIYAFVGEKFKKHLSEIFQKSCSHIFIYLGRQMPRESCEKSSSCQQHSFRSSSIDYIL

For experiment [5], the target named is T3, cynomolgus monkey CCR8 expressed on …. Nature of the experiment: flow cytometry, CyCCR8-293T cells, fold geomean over secondary alone.
Experiment [6] addresses T4, Human CCR8-ECD-Fc (human).
T4 construct: also called HuCCR8-ECD-Fc; huCC8-ECD-Fc
T4 chain: T1 chain with P7L, M9V, M12V, S20I, L21F, G27A, R32T, D34G
Kind of experiment: binding to HuCCR8-ECD-Fc protein, OD 450-570 nm.

In experiment [7] the target is T2, human CCR8 (C-C chemokine receptor type …). Kind of experiment: flow cytometry, HuCCR8-293T cells, fold geomean over secondary alone.
The target in experiment [8] is T3, cynomolgus monkey CCR8 expressed on …. Kind of experiment: flow cytometry, CyCCR8-293T cells, fold geomean over secondary alone. The source holds these as a separate data set.
For experiment [9], the target named is T4, Human CCR8-ECD-Fc. Kind of experiment: binding to HuCCR8-ECD-Fc protein, OD 450-570 nm.
In experiment [10] the target is T1, Cynomolgus CCR8-ECD-Fc. Nature of the experiment: binding to CyCCR8-ECD-Fc protein, OD 450-570 nm.
Experiment [11] concerns the target T2, human CCR8 (C-C chemokine receptor type …). Nature of the experiment: flow cytometry, HuCCR8-293T cells, fold geomean over secondary alone. The source holds these as a separate data set.
The target is the same in experiment [12]. The description is as above. This is another data set of the same source.
Experiment [13] addresses T4, Human CCR8-ECD-Fc. Nature of the experiment: binding to HuCCR8-ECD-Fc protein, OD 450-570 nm.
Experiment [14] deals with T1, Cynomolgus CCR8-ECD-Fc. Nature of the experiment: binding to CyCCR8-ECD-Fc protein, OD 450-570 nm.
For experiment [15], the target named is T2, human CCR8 (C-C chemokine receptor type …). Kind of experiment: flow cytometry, HuCCR8-293T cells, fold geomean over secondary alone. The source holds these as a separate data set.
For experiment [16], the target named is T1, Cynomolgus CCR8-ECD-Fc. Kind of experiment: binding to CyCCR8-ECD-Fc protein, OD 450-570 nm.
Experiment [17] concerns the target T3, cynomolgus monkey CCR8 expressed on …. Kind of experiment: flow cytometry, CyCCR8-293T cells, fold geomean over secondary alone. The source holds these as a separate data set.
Experiment [18] addresses T4, Human CCR8-ECD-Fc. Nature of the experiment: binding to HuCCR8-ECD-Fc protein, OD 450-570 nm.
In experiment [19] the target is T4, Human CCR8-ECD-Fc. Kind of experiment: binding to HuCCR8-ECD-Fc protein, OD 450-570 nm.
Experiment [20] addresses T3, cynomolgus monkey CCR8 expressed on …. Kind of experiment: flow cytometry, CyCCR8-293T cells, fold geomean over secondary alone. This is another data set of the same source.
Experiment [21] has as its target T1, Cynomolgus CCR8-ECD-Fc. Nature of the experiment: binding to CyCCR8-ECD-Fc protein, OD 450-570 nm.
Experiment [22] deals with T2, human CCR8 (C-C chemokine receptor type …). Kind of experiment: flow cytometry, HuCCR8-293T cells, fold geomean over secondary alone. This is another data set of the same source.
For experiment [23] the target is unchanged. Kind of experiment: on-cell affinity, flow cytometry on 293T cells expressing human CCR8. The source holds these as a separate data set.
In experiment [24] the target is T4, Human CCR8-ECD-Fc. Nature of the experiment: binding to HuCCR8-ECD-moFc protein (so in the source), OD45-570nm (so in the source).
The target of experiment [25] is T1, Cynomolgus CCR8-ECD-Fc. Kind of experiment: binding to CyCCR8-ECD-huFc protein (so in the source), OD45-570nm (so in the source).
Experiment [26] addresses T3, cynomolgus monkey CCR8 expressed on …. Nature of the experiment: on-cell affinity, flow cytometry on 293T cells expressing cyno CCR8. The source holds these as a separate data set.
Target sequence in this assay (G7NYJ2 entry or part of it): as above
Experiment [27] concerns the target T5, mouse CCR8 expressed on 293T cells (mouse, UniProt P56484 1-353).
T5 construct: whole, on cells
T5 sequence (looked up): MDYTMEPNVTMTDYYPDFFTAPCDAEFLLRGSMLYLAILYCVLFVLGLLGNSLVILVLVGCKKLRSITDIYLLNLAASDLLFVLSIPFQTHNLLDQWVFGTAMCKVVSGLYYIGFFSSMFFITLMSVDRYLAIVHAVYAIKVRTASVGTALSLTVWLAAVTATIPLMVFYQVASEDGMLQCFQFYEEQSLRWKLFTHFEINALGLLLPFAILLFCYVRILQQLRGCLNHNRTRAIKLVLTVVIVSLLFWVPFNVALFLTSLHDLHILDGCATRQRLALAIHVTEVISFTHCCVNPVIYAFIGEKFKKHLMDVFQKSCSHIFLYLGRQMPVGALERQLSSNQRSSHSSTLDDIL
Nature of the experiment: flow cytometry, mouseCCR8-293T cells, fold geomean over secondary alone.

The target in experiment [28] is T5, mouse CCR8 expressed on 293T cells. The experiment is described as above. This is another data set of the same source.
Experiment [29] deals with T4, Human CCR8-ECD-Fc. Kind of experiment: binding to HuCCR8-ECD-moFc protein (so in the source), OD45-570nm (so in the source).
Experiment [30] addresses T1, Cynomolgus CCR8-ECD-Fc. Nature of the experiment: binding to CyCCR8-ECD-huFc protein (so in the source), OD45-570nm (so in the source).

T2 sequence (P51685 whole entry): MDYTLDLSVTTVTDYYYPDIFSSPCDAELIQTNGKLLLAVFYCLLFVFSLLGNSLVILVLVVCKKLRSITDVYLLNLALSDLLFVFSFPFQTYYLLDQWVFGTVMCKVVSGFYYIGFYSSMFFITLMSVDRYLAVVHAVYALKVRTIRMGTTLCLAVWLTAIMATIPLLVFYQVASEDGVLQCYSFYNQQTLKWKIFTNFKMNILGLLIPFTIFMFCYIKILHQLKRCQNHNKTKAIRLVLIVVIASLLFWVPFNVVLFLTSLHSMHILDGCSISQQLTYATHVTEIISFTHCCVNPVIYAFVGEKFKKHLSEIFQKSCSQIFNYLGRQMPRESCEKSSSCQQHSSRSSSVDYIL
Chain of human CCR8 (C-C chemokine receptor type 8) expressed on cells (human) (P51685 whole entry): as above

For Biolegend control (antibody), the IC50 (read off the curve) in experiment [1] is 0.03 µg/mL.

B1: anti-CCR8-2-3 (antibody, V domains shown)
VH: EVQLVESGGGLVQPGRSLRLSCAASGFTFDDYAMHWVRQAPGKGLEWVSGISWNSGSIGYADSVKGRFTISRDNSKNSLYLQMNSLRAEDTALYYCARGRKSYRDSLRFDYWGQGTLVTVSS
VL: QSVLTQPPSVSAAPGQKVTISCSGSSSNIGNNYVSWYQQLPGTAPKLLIYDNNKRPSGIPDRFSGSKSGTSATLGITGLQTGDEADYYCGTWDSSLSAWVFGGGTKLT
notes: Human IgG from a mammalian expression vector in CHO cells; also called heavy chain H23499
As for B1, the “EC50 (read off the curve)” value in experiment [2] was around 30 ng/mL; in [5], around 1 µg/mL; in [6], around 30 ng/mL; in [7], around 0.4 µg/mL. The Kd was found to be 2.5 nM in [3] and 3.9 nM in [4].

B2: anti-CCR8-2-8 (antibody, V domains shown)
VH: B1 VH with K101R
VL: QSVLTQPPSVSGAPGQRVTISCTGSGSNIGNNYVSWYQQLPGTAPKMLIYDNTRRPSGIPDRFSGSKSDTSATLGITGLQTGDEADYYCGAWDSSLRMWVFGGGTKLTVL
notes: Human IgG
As to B2, the “EC50 (read off the curve)” value in experiment [8] is around 1 µg/mL; in experiment [9], around 40 ng/mL; in experiment [10] it was around 40 ng/mL; in experiment [11], around 0.4 µg/mL. In addition, the Kd amounted to 1.5 nM in [3] and 2.5 nM in experiment [4].

B3: anti-CCR8-2-10 (antibody, V domains shown)
VH: B1 VH
VL: QSVLTQPPSVSAAPGQKVTISCSGTSSNIGKNFVSWYQQLPGTAPKLLIYDDNKRPSGIPDRFSGSKSATSATLGITGLQTGDGADYYCGTWDSSLSAWVFGGGTKLTVL
notes: Human IgG
For B3, the results for the Kd in experiment [3] and in [4] were 2.4 nM and 3.9 nM, respectively. The “EC50 (read off the curve)” value was around 0.6 µg/mL in experiment [12], around 40 ng/mL in experiment [13] and around 40 ng/mL in [14].

B4: anti-CCR8-2-9 (antibody, V domains shown)
VH: B1 VH
VL: B2 VL
notes: Human IgG
As for B4, the “EC50 (read off the curve)” value in experiment [15] is around 0.4 µg/mL; in experiment [16], around 40 ng/mL; in experiment [17], around 0.4 µg/mL; in experiment [18], around 40 ng/mL. For the same molecule, the results for the Kd in experiment [3] and in [4] were 1.5 nM and 3.2 nM, respectively.

B5: anti-CCR8-2-7 (antibody, V domains shown)
VH: B1 VH with K101D, D105K
VL: B2 VL
notes: Human IgG
As to B5, the Kd in experiment [3] turned out to be 1.3 nM; in experiment [4], 3.5 nM. In addition, the “EC50 (read off the curve)” value was around 40 ng/mL in experiment [19], around 1 µg/mL in experiment [20], around 40 ng/mL in experiment [21] and around 0.4 µg/mL in experiment [22].

B6: anti-CCR8-parental-1 (antibody, V domains shown)
VH: QVQLVQSGAEVKKPGASVKVSCKASGYTFTSYYMHWVRQAPGQGLEWMGIINPSGGSTSYAQKFQGRVTMTRDTSTSTVYMELSSLRSEDTAVYYCARGVGNGFRFDYWGQGTLVT
VL: QSALTQPASVSGSPGQSITISCTGTSSDVGSYNLVSWYQQHPGKAPKLMIYEVSKRPSGVSNRFSGSKSGNTASLTISGLQAEDEADYYCSSYAGSSTFVVFGGGTKLTVL
notes: Full-length human IgG; also called parental antibody; H23188/L1037
For B6, binding in experiment [23] was put at a Kd of 1.06 nM.

B7: anti-CCR8-1-4 (antibody, V domains shown)
VH: B6 VH
VL: QSALTQPASVSGSPGQSITISCSGTSSNIGKYNLVSWYQQHPGEAPTLLIYEATKRPSGVSNRFSGSKSGNTASLTISGLQAEDEADYICSSYAGSRVFVVFGGGTKLTVL
notes: Parental-1 heavy chain with a shuffled lambda light chain; Human IgG expressed in CHO cells
For the molecule B7, the Kd amounted to 0.28 nM in experiment [23] and 35.9 nM in experiment [26]. Besides, the binding result was “binds” in [24], “binds” in experiment [25] and “no binding (tested: 10 ug/ml)” in experiment [27].

B8: anti-CCR8-1-3 (antibody, V domains shown)
VH: B6 VH
VL: B6 VL with A8P, T23S, S31I, M49I, S54I, V60I, S67F, S96P, S97V, F99Y
notes: as for B7
In experiment [23], B8 came in with a Kd of 1.38 nM. The binding result is “no binding (tested: 10 ug/ml)” in [28], “binds” in experiment [29] and “binds” in [30].

The EC50 (read off the curve) is the concentration giving half of the maximal effect. Usually Kd stands for the constant that tells how readily two partners part at equilibrium.

Source of the values: patent US20210238292A1 (VACCINEX, published 2021).
